According to US20240254203A1 (ACHELOIS BIOPHARMA, published 2024):

B1: 2M-10B11 (antibody, V domains shown)
VH: EVQLVESGGGLVQPGGSLRLSCAASGFTVSSNYMSWVRQAPGKGLEWVSVIYSGGSTYYADSVKGRFTISRDNSKNTLYLQMNSLRAEDTAVYYCARATWLRGVMDVWGQGTTVTVSS
VL: QSALTQPHSVSESPGKTVTISCTGSSGSIASNYVQWYQQRPGSAPTTVIYEDNQRPSGVPDRFSGSIDSSSNSASLTISGLKTEDEADYYCQSYDSSNHWVFGGGTKLTVL
B2: 9A1 (antibody, V domains shown)
VH: EVQLLESGGGVVQPGRSLRLSCVVSGFTFNNYGMHWVRQAPGKGLEWVAVISYEGSVKYYGDHVDGRFTISRDPFKNTLYLHMNNLRPDDTAVYYCAKVSAIFWLGQGLSPIDVWGQGTTVTVSS
VL: DIVMTQSPATLSASPGERVTLSCRASQNIRNNLAWYQQKPGQAPRLLIHGASTRAAGAPARFSGSGSDTQFTLTVSSLQSEDFAVYYCHQYSKWPVTFGGGTKVDIK
B3: C021 (antibody, V domains shown)
VH: QVQLQESGPGLVKPSQTLSLTCTVSGGSISSGGYYWSWIRQHPGKGLEWIGYIYYSGSTYYNPSLKSRVTISVDTSKNQFSLKLSSVTAADTAVYYCARVWQYYDSSGSFDYWGQGTLVTVSS
VL: not shown
B4: 2M-14E5 (antibody, V domains shown)
VH: EVQLVESGGGVVQPGRSLRLSCAASGFTFSTYSMHWVRQAPGKGLEWVAVISYDGSNKYYADSVKGRFTISRDNSKNTLYLQVNSLRAEDTAVYYCARSGGGSYRGPFDYWGQGTLVTVSS
VL: AIRMTQSPSFLSVSVGDRVTITCRASQGISSYLAWYQQKPGKAPKLLIYAASTLQSGVPSRFSGSGSGTEFTLTISSLQPEDFATYYCQQLNSYVTFGGGTKVEIK
B5: 0304-4A10 (antibody, V domains shown)
VH: EVQLVESGGGLVQPGGSLRLSCAASGFTFSTYAMHWVRQAPGKGLEYVSGISSNGGSTYYANSVKGRFTISRDNSKNTLYIQMGSLRAEDMAVYYCARSSSRGFDYWGQGTLVTVSS
VL: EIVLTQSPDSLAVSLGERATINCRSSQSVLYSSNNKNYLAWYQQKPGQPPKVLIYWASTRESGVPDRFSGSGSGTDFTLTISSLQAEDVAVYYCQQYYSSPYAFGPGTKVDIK
B6: C018 (antibody, V domains shown)
VH: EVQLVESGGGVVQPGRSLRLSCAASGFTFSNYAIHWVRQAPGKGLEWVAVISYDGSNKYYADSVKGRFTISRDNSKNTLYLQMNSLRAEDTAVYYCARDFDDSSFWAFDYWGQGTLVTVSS
VL: DIQLTQSPSSLSASVGDRVTITCRASQSIRSYLNWYQQKPGKAPKLLIYAASSLQSGVPSRFSGSGSGTDFTLTISSLQPDDFATYYCQQSYSTPPATFGQGTKLEIK

Key:
[1] = biological target: T1, SARS CoV-2 spike protein (antigen of the mAb binding affinity values) (SARS CoV-2, UniProt P0DTC2 14-1213); experiment: assay not described; mAb; binding locale Spike RBD
[2] = biological target: T1, SARS CoV-2 spike protein (antigen of …); experiment: assay not described; mAb; binding locale Spike S2

Binder | mAb Binding Affinity [1] [ng/mL] | mAb Binding Affinity [2] [ng/mL]
B1 | 5 | 
B2 |  | 5
B3 | 1.25 | 
B4 |  | 7
B5 |  | 3
B6 | 1.53 | 
